Tests used:
ScECM4 = target: T1, ScECM4 (Saccharomyces cerevisiae, UniProt P36156); assay: absorbance loss at […] nm; HPLC of menadione at […] nm; format: biochemical; conditions: GSH 0.05 to 1 mM (spectrophotometry) or 2 mM (HPLC) required; 30 mM Tris-HCl pH 8.0, 1 mM EDTA; room temperature (HPLC)
T1 construct: gene ECM4; full-length, C-terminal His-tag kept (pET-26b NdeI/XhoI), expressed in E. coli Rosetta2 (DE3) pLysS; dimer
T1 sequence (P36156 1-370): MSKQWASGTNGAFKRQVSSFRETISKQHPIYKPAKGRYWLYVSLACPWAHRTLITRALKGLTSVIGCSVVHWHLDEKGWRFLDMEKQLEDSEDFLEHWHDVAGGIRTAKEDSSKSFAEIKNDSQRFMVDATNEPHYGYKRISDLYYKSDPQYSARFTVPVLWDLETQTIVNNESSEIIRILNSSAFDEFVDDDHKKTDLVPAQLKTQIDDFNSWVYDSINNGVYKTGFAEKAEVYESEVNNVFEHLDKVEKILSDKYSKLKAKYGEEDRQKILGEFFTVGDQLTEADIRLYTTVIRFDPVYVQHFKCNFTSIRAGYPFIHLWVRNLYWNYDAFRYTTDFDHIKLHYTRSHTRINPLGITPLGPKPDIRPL

[1] = target: the molecule itself; assay: crystal structure; microbatch under paraffin oil at 278 K, 20% PEG 2000 MME, 0.1 M Tris-HCl pH 7.0; space group P2(1), two monomers in the asymmetric unit; apo crystals and crystals soaked with 5 mM GS-menadione

Molecule	absorbance loss at 430 nm; HPLC of menadione at 250 nm (ScECM4)	stoichiometry N [1]
CC1=C(SC[C@H](NC(=O)CC[C@H](N)C(=O)O)C(=O)NCC(=O)O)C(=O)c2ccccc2C1=O [GS-menadione]	ScECM4 activity measurements stated for reduction of GS-menadione to menadione in presence of glutathione	–
ScECM4 (ECM4 from Saccharomyces cerevisiae, glutathionyl-hydroquinone reductase, Xi-class glutathione transferase) (enzyme, UniProt P36156 1-370, looked up, ECM4 (Gto2), Saccharomyces cerevisiae, YKR076W; Homodimer in the crystal; The printed end of the C-terminal domain (E372) probably counts residues added by the XhoI site and vector before the His tag (surmised); also called Gto2; GHR ScECM4; source: E. coli Rosetta2 (DE3) pLysS, purified (Ni-NTA, gel filtration on Superdex 200); not shown: His6, C-terminal, kept) MSKQWASGTNGAFKRQVSSFRETISKQHPIYKPAKGRYWLYVSLACPWAHRTLITRALKGLTSVIGCSVVHWHLDEKGWRFLDMEKQLEDSEDFLEHWHDVAGGIRTAKEDSSKSFAEIKNDSQRFMVDATNEPHYGYKRISDLYYKSDPQYSARFTVPVLWDLETQTIVNNESSEIIRILNSSAFDEFVDDDHKKTDLVPAQLKTQIDDFNSWVYDSINNGVYKTGFAEKAEVYESEVNNVFEHLDKVEKILSDKYSKLKAKYGEEDRQKILGEFFTVGDQLTEADIRLYTTVIRFDPVYVQHFKCNFTSIRAGYPFIHLWVRNLYWNYDAFRYTTDFDHIKLHYTRSHTRINPLGITPLGPKPDIRPL	–	2
glutathionylated ScECM4 (ScECM4-SG) (enzyme, Saccharomyces cerevisiae, UniProt P36156 1-370, looked up, glutathione covalently bound to C46 (mixed disulfide bond), ECM4 (Gto2), Saccharomyces cerevisiae, YKR076W; same construct as m1, glutathionylated at C46 after soaking or co-crystallisation with GS-menadione; Same construct as m1, with glutathione on C46; Homodimer in the crystal; source: E. coli Rosetta2 (DE3) pLysS, purified (Ni-NTA, gel filtration); crystals soaked with 5 mM GS-menadione; not shown: His6, C-terminal, kept) MSKQWASGTNGAFKRQVSSFRETISKQHPIYKPAKGRYWLYVSLACPWAHRTLITRALKGLTSVIGCSVVHWHLDEKGWRFLDMEKQLEDSEDFLEHWHDVAGGIRTAKEDSSKSFAEIKNDSQRFMVDATNEPHYGYKRISDLYYKSDPQYSARFTVPVLWDLETQTIVNNESSEIIRILNSSAFDEFVDDDHKKTDLVPAQLKTQIDDFNSWVYDSINNGVYKTGFAEKAEVYESEVNNVFEHLDKVEKILSDKYSKLKAKYGEEDRQKILGEFFTVGDQLTEADIRLYTTVIRFDPVYVQHFKCNFTSIRAGYPFIHLWVRNLYWNYDAFRYTTDFDHIKLHYTRSHTRINPLGITPLGPKPDIRPL	–	2
